System: T1, Nc1ncnc2c1ncn2[C@@H]1O[C@H](COP(=O)(O)OP(=O)(O)OP(=O)(O)O)[C@@H](O)[C@H]1O
T1 construct: RdRp domain residues 275-903 of NS5, cut from the genome polyprotein; E. coli BL21(DE3)-pRIL; 75 kDa
Experiment: purified protein
Assay type: biochemical, Zika virus
Conditions: poly-U 3 μg/mL, ATP 200–2250 μM, 2.5 mM MnCl2, pH 7.5, 30 °C

## ZIKV RdRp (ZIKV NS5 RdRp domain) (Zika virus)
  Km: 561 ± 38 µM
